Experimental data from patent US20080280827A1.

What was measured:
[1] = target: recombinant human LAP (R & D) (UniProt P01137)
[2] = target: plasmin/plasma kallikrein; experiment: cell-based or functional assay

recombinant human LAP (R & D), sequence (P01137 whole entry, looked up): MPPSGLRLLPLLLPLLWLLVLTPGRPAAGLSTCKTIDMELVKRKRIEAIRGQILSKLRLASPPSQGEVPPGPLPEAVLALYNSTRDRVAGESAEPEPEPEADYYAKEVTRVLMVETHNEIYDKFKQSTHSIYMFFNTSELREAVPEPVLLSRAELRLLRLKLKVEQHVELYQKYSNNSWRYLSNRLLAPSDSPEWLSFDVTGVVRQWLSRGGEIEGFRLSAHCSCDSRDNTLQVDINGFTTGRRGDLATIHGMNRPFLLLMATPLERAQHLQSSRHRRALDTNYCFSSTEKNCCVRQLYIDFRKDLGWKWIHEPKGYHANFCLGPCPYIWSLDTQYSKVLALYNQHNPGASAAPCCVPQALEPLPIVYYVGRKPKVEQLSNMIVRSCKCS

inhibition of generation of active TGF-β in conditioned medium of rat hepatic stellate cells (ELISA, peptide 0.5 mM) [2] [%] | Molecule | other results
 | plasma kallikrein (SIGMA) | LAP cleavage reaction (western blot: LAP 41 kDa, LAP degradation product 38 kDa) [1]: attenuation of LAP band found in panel A, and generation of LAP degradation product found in panel B
55 | QILSKLRLASP [QP peptide (Gln-Ile-Leu-Ser-Lys-Leu-Arg-Leu-Ala-Ser-Pro)] | 
90 | QILSQQQQASP [QPQ peptide] | 
 | TGVVRQWLSRG [T200 peptide (Thr-Gly-Val-Val-Arg-Gln-Trp-Leu-Ser-Arg-Gly)] | amount of active TGF-β generated into the conditioned medium, relative to control [2]: 74 % of control
